From US5650301A, “Hirudin HV2 having a SN7LYS substitution, method of making, and method of use” (Transgene S.A., priority 1986, dated 1997)

Key:
[1] = target: T1, thrombin (Homo sapiens, UniProt P00734); assay: Kinetics of inhibition of human thrombin by purified hirudin variants (chromozyme PL); type: biochemical; parameters: The specific antithrombin activity (human and bovine thrombin) of the two recombinant hirudins
Source text: To study the kinetics of inhibition of thrombin by these variants, the theory of high affinity inhibitors, as described in J. W. WILLIAMS and J. F. MORRISON Methods in Enzymology 63 pp. 437-467, 1979, is used, since hirudin is a reversible inhibitor of thrombin.
The variants of hirudin used are purified to 95% and the Sigma pure human thrombin has a percentage activity, measured by titration of the active site, which is above 92%. The concentration of human thrombin is the same for all the measurements, namely 5.5×10^-9 M. The medium is an 0.05M sodium PIPES buffer, pH 7.9, 0.18M KCl and 0.1% PEG at 37° C. The thrombin substrate is Boehringer chromozyme PL. A preincubation time of 2 minutes is observed for the thrombin and hirudin, and the reaction is then initiated with the substrate.
The following table summarizes the values determined experimentally for the quantity of hirudin required for a 95% inhibition of the same quantity of human thrombin (5.5×10^-9 M).

[2] = system: bleeding time in rats; conditions: rat, in vivo
[3] = system: rat and rabbit plasma; assay: Anticoagulant activity in vitro in plasma, prolongation of the thrombin time; conditions: higher concentrations, compared with rHV2
Procedure: (§1) b) The anticoagulant activity of the two hirudins is compared in vitro in rat and rabbit plasma in terms of prolongation of the thrombin time, and the anti-IIa effect is measured chromogenically.

[4] = target: T1, thrombin; assay: Specific antithrombin activity, inhibition of proteolytic activity of thrombin on chromozyme; type: biochemical; parameters: The specific antithrombin activity (human and bovine thrombin) of the two recombinant hirudins
Procedure: (§2) a) The specific antithrombin activity (human and bovine thrombin) of the two recombinant hirudins in physiological saline is determined on the basis of the inhibition of the proteolytic activity of thrombin on chromozyme.
(§3) a) For a preparation of stock solution at a concentration of 1 mg/ml, the specific antithrombin activity of the two variants of hirudin with respect to human and bovine thrombins is expressed in Table 1 below: […]

[5] = target: T2, bovine thrombin (Bos taurus, UniProt P00735); assay: as above; type: biochemical; conditions: stock solution 1 mg/ml in physiological saline
T2 construct: The specific antithrombin activity (human and bovine thrombin) of the two recombinant hirudins
Procedure: as §2, §3

[6] = target: T1, thrombin; assay: Inhibitory effect of crude yeast culture supernatants on thrombin activity (chromozyme TH); type: biochemical; conditions: yeast culture supernatants after 48 h, compared with native HV2 (FIG. 2)
Procedure: 20 ml of culture (YNBG+0.5% casamino acids) at OD660 0.02 were seeded with each strain. After 48 h of agitation at 30° C. the cultures were centrifuged (5000 rpm, 5 min) and the supernatants assayed. A culture of TGY1sp4 pTG881 (plasmid not carrying the coding sequence for HV2) was used as a control.
The activity of the crude supernatants is measured in terms of their inhibitory effect with respect to thrombin activity (proteolytic activity on a synthetic substrate, chromozyme TH--Boehringer Mannheim).

[7] = system: thrombosis by blood stasis in rabbits; assay: Model of thrombosis by blood stasis in rabbits; type: in vivo; conditions: RABBIT i.v. perfusion
Procedure: (§4) e) The antithrombotic activity of the two variants of hirudin and of standard heparin is studied in Wessler's rabbit and rat model, with thromboplastin as thrombogenic agent, and in the model of stasis in rabbits (Fareed). The compounds are administered by continuous perfusion in rabbits and by i.v. bolus in rats.
Male New Zealand rabbits weighing 2.5 to 3 kg were used in this study. After intravenous anesthesia with pentobarbital sodium (30 mg/kg), the left carotid was cannulated and the two jugular veins were isolated; two slack ligatures were placed on each of them, at a distance of 2.5 cm from one another. The rabbits then received either physiological saline or solutions of hirudin or heparin in continuous perfusion for 30 minutes, at a flow rate of 2.5 ml/hour. Two minutes before the end of perfusion, arterial blood samples were drawn in order to determine the plasma levels of the anticoagulants. At the same time as the perfusion was stopped, stasis was established by tightening the four ligatures (first the proximal and then the distal). The stasis was maintained for 2 hours, the jugulars were then opened and the thrombi extracted, rinsed in physiological saline and weighed after blotting with filter paper.

[8] = system: venous thrombosis in rabbits; assay: Wessler's model in rabbits (thromboplastin as thrombogenic agent); type: in vivo, rabbit
Procedure: as §4
Male New Zealand rabbits weighing 2.5 to 3 kg were used in this study. After anesthesia by intravenous injection of pentobarbital sodium (30 mg/kg), the left carotid was cannulated and the two jugular veins were isolated; two slack ligatures were placed on each of them at a distance of 2.5 cm from one another. The rabbits then received either physiological saline or solutions of hirudin or heparin in continuous perfusion for 30 minutes at a flow rate of 2.5 ml/hour. Two minutes before the end of the perfusion, arterial blood samples were drawn in order to determine the plasma levels of the anti-coagulants. One minute before the end of the perfusion, human thromboplastin (Manchester Comparative Reagents Ltd), standardized according to M. Buchanan's procedure, was injected at a dose of 600 ug/kg during exactly 30 seconds into the aorta via the carotid. Thirty seconds later the perfusion was stopped and blood stasis was produced by tightening the ligatures on the two venous segments for 15 minutes. […]

[9] = system: hemorrhage in rabbits; conditions: rabbit, in vivo
[10] = system: venous thrombosis in rats; assay: Wessler's model in rats; type: in vivo; conditions: RAT i.v. bolus, -5 min 40 s before stasis
Procedure: as §4
Male (CD-COBS) Sprague-Dawley rats weighing approximately 300 g were used. […] Two flexible ligatures were positioned 0.7 cm apart.
The test products, diluted in physiological saline, were injected in an i.v. bolus at 1 ml/kg, 5 min 40 s or 1 min (heparin) before the production of venous stasis. Forty seconds before this stasis, a thrombogenic agent (rabbit thromboplastin, E. Dade) was injected at a dose of 25 mg/ml/kg into the vein of the penis in the space of 30 seconds, measured very exactly. Ten seconds after the end of the injection, stasis was established by tightening the two ligatures, first the proximal and then the distal. The stasis was maintained for 10 minutes, and the thrombus was then removed, immersed in a 0.38% strength citrate solution, dried with general-purpose absorbent paper and weighed on the following day after drying for one hour at […].

[11] = system: residual thrombin in the rat and rabbit plasma; assay: Anti-IIa effect in plasma, residual thrombin by chromogenic substrate; type: biochemical; conditions: above 60 ATU/ml, compared with rHV2
Procedure: as §1

B1: ILE THR TYR THRASP CYS THR GLU SER GLY GLN ASN LEU CYS LEU CYS GLU GLY SER ASN VAL CYS GLY LYS GLY ASN LYS CYS ILE LEU GLY SER ASN GLY LYS GLY ASN GLN CYS VAL THR GLY GLU GLY THR PRO LYS PRO GLU SER … (protein)
chain: ITYTDCTESGQNLCLCEGSNVCGKGNKCILGSNGKGNQCVTGEGTPKPESHNNGDFEEIPEEYLQ
modifications: printed: ILE THR TYR THRASP CYS THR GLU SER GLY GLN ASN LEU CYS LEU CYS GLU GLY SER ASN VAL CYS GLY LYS GLY ASN LYS CYS ILE LEU GLY SER ASN GLY LYS GLY ASN GLN CYS VAL THR GLY GLU GLY THR PRO LYS PRO GLU SER HIS ASN ASN GLY ASP PHE GLU GLU ILE PRO GLU GLU TYR LEU GLN
notes: recombinant hirudin HV2 variant in which the Asn^47 is replaced by a Lys, produced in yeast
[1]; human thrombin 5.5×10^-9 M, PIPES pH 7.9, 37° C., chromozyme PL, 2 min preincubation
  Quantity for attaining 95% inhibition of thrombin: 7.6 10^-9 M
[1]; relative to hirudin HV2
  fold less hirudin than HV2 required for inhibiting the same quantity of human thrombin: approximately 4 fold
[2]
  prolongation of the bleeding time: less than those in animals treated with standard heparin
[3]
  anticoagulant activity determined in terms of the thrombin time: markedly superior
[4]; expected values
  specific antithrombin activity, results expected for human thrombin: 16,000 ATU/mg
[4]; stock solution 1 mg/ml in physiological saline
  specific antithrombin activity for human thrombin: 19,000 ATU/mg
[4]; summary value of the text, identical for the human and bovine thrombins
  specific antithrombin activity: ~19,000 ATU/mg
[5]
  specific antithrombin activity for bovine thrombin: 19,200 ATU/mg
[6]
  inhibitory effect of crude supernatants with respect to thrombin activity: at least equal to that of native HV2
[7]
  Antithrombotic effects, STASIS: 47 µg/kg/h
[8]; RABBIT i.v. perfusion
  Antithrombotic effects, WESSLER: 20 µg/kg/h
[8]; continuous perfusion in rabbits, compared with rHV2 and heparin
  antithrombotic activity: superior to those of rHV2 and heparin
[9]
  risk of hemorrhage: less than those in animals treated with standard heparin
[10]
  Antithrombotic effects, WESSLER: 160 µg/kg
[11]
  further neutralizing the traces of residual thrombin: more effective
